Test results as given in the nanobody polyreactivity screen of Harvey et al. (2022).

Assay: yeast display, Sf9 membrane polyspecificity reagent, FACS + sequencing; frameworks hold sequencing errors
Procedure, shortened: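 A synthetic nanobody library was expressed on Saccharomyces cerevisiae BJ5465 by galactose induction for 36–48 hours. The library was stained for 1 hour at 4 °C with 10% biotinylated, detergent-solubilized Sf9 membrane reagent and enriched with streptavidin microbeads before FACS. Low and high (top ~1%) gates were set on anti-HA fluorescence for expression and streptavidin fluorescence for reagent binding, and each polyreactivity label reflects the gate of origin.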

| Sequence | polyreactivity (PSR sort gate) |
| --- | --- |
| QVQLVESGGGLVHAGGSLRLSCAASGFILTGNAMGWYRQAPGKERELVAAITSGGRTYYADSVKGRFTISRDNAKNTVYLQMNSLKPEETAVYYCAARRRWSQTPFDYWGQGTQVTVSS | high polyreactivity |
| QVQLVESGGGLVHAGGSLRLSCAASGFTFRWYAMGWYRQAPGKERELVARIRGGGSTNYADSVKGRFTISRDNAKNTVYLQMNSLKPEDTAVYYCNTAYPWPPVKYDYWGQGTQVTVSS | high polyreactivity |
| QVQLVESGGGLVHAGGSLRLSCAASGFTLHQYTMGWYRQAPGKERELVAAISDRGTRTYYADSVKGRFTISRDNAKNTVYLQMNSLKPEDPAVYYCAAYIAGVTGGSGYYYWGKGTQVTVSS | high polyreactivity |
| QVQLVESGGGLVHAGGSLRLSCAASGIIFGVYAMGWYRQAPGKERELVAAISWSGGSTYYADSVKGRFTISRDNAKNNVYLQMNSLKPEDTAVYYCAADAYPHEDYYWGQGNQVTVSS | high polyreactivity |
| QVQLVESGGGLVHAGGSLRLSCAASGIIFQYYLMGSYRPAPGKERELVAAIDKSGGSTYYADSVKGRFTISRDNAKNTVYLQMNSLKPEDTAVYYCAATSYAHKYYGYFGAIKYEYWGQGTQVTVSS | low polyreactivity |
| QVQLVESGGGLVHAGGSLRLSCAASGLTFKRYAMGWSRQAPGKERELVASITGNGGSTYYADSVKGRFTISRDNAKNTVYSQMNSLKPEDTAVYYCNARRYVRTSQQPLYDYWGQGTQVTVSS | high polyreactivity |
| QVQLVESGGGLVHAGGSLRLSCAASGRILGKYANGWYRQAPGKERELVAAINWRGGRTYADSVKGRFTISRDNSKNNVYLQMNSLKPEDTAVYYCAAVWQSPRPGYGYWGQGTQVTVSS | high polyreactivity |
| QVQLVESGGGLVHAGGSLRLSCAASGRISSSYAMGWYRQAPGKERELVAAITSRGGSTYYADSVKGRFTISRDNAKNTVYLQMNSLKPEDTAVYYCAKYQYYRSTDDYWGQGTQVTVSS | low polyreactivity |
| QVQLVESGGGLVHAGGSLRLSCAASGRTFAQNAMRRYRQAPWKERELVAAIRNGGRTNYADSVKGLFTISRDNAKNTVYLQMNSLKPEDTAVYYCAVKFNNRAKYGYWGQGTQVTVSS | high polyreactivity |
| QVQLVESGGGLVHAGGSLRLSCAASGRTFAYNAMGWYRQAPGKERELVAAITRSTGNTYYADSVKGRFTISRDNAKNTVYLQMNSLKPEDTAVYYCAAAYAYWRKYDYWGQGTQVTVSS | high polyreactivity |
| QVQLVESGGGLVHAGGSLRLSCAASGRTFIAYAMGWYRQAPGKERELVADISLRGGSTYYADSVKGRFTISRDNAKNTVYLQMNSLKPEDTAVYYCNTRRLHGWLYGYEYWGQGTQVTVSS | low polyreactivity |
| QVQLVESGGGLVHAGGSLRLSCAASGRTFSAYAMGWYRQAPGKERELVAAISRSGGRTYYADSVKGRFTISRDNAKNTVYLQMNSLKPEDTAVYYCNALNLPDNQGTYDYWGQGTQVTVSS | high polyreactivity |
| QVQLVESGGGLVHAGGSLRLSCAASGRTFVLYVMGWYRQAPGKETEFVADINAGGGSTYYADSVKGRFTISRDNAKNTVYLQMNSLKPEDTAVYYCAATRVLGQLFRFGYWGQGTQVSVSS | low polyreactivity |
| QVQLVESGGGLVHAGGSLRLSCAASGRTFWSYAMGWYRQAPGKERELVAAIRTSDGITYYADSVKGRFTISRDNAKNTVYLQMNSLKPEDTAVYYCAAENWYKYDYWGQGTQVTVSS | low polyreactivity |
| QVQLVESGGGLVHAGGSLRLSCAASGRTFWTYAMGWYRQAPGKERELVAAISSGGSTYYADSVKGRFTISRDNAKNTVYLQMNSLKPEDTAVYYCATRVYGGYGYWGQGTQVTVSS | high polyreactivity |
| QVQLVESGGGLVHAGGSLRLSCAASGRTFYANAMGWYRQAPGKERELVAAISSRSGTTHYADSEKGRFTISRDNAKNSVYLQMNSLKPEETAVYYCAVRYYRRRYDYWGQGTQVTVSS | low polyreactivity |
| QVQLVESGGGLVHAGGSLRLSCAASGRTFYRYGMGWYREARGKERELVAAISNRGGTTYYADSLKGRFTISRDNAKNTVYLQMNSLKPEDTAVYYCAADSVYAEYDSWGQGTQVTVSS | low polyreactivity |
| QVQLVESGGGLVHAGGSLRLSCAASGSIFEGYAMGWSRQAPGKERELVAAISRSGGSTYYADSVKGRFTISRDNAKNSVYLQINRLTPEATAVYYCAARKAIDYQGRHDHWGQGTQVTVSS | low polyreactivity |
| QVQLVESGGGLVHAGGSLRLSCAASGSIFGFYTMGWYRQAPGKERELVAAITWSGGRTYYADSVKGRFTISRDNAKNTVYLQMNSLKPEDTAVYYCNRDGRSRWYYASAGYNYWGQGTQVTVSS | high polyreactivity |
| QVQLVESGGGLVHAGGSLRLSCAASGSIFRRNAMGMSRQAPGKERELVASITSGASTYYADSVKGRFTISRDNAKNTVYIQMNSLKPEDTAVYYCAADIFVTAFASPMDYWGQGTQVTVSS | low polyreactivity |
| QVQLVESGGGLVHAGGSLRLSCAASGSIFVVYTMGWYIQAPGKERELVADISASGGRTYYADSVKGRFTISSDNAKNTVYLKMNRLKPEDTAVYYCARVWYSSYSSESYSDHDYWGQGTQGTVSS | high polyreactivity |
| QVQLVESGGGLVHAGGSLRLSCAASGSIFYPYAMGWYRKAPGKERELVAAISRSGGRTYYADSVKGRFTISRDNAKNTVYLQMNSLKPEDTAVYYCNAYYPGNGPRSTSTRYEYWGQGTQVTVSS | high polyreactivity |

| Sequence | polyreactivity (PSR sort gate) |
| --- | --- |
| QVQLVESGGGLVHAGGSLRLSCAASGSILNGYVMGWYRQAPGKERELVGTYYADSVKGRFTISRDNAKNTVYLQMNSLKPEDTAVYYCAADIGDGSEFDYWGLGTQVTVSS | low polyreactivity |
| QVQLVESGGGLVHAGGSLRLSCAASGSILSSYAMGWYRQAPGKERELVAAINSGGSTNYADSVKGRFTISRDNAKNTVYLQMNSLKAEDTAVYYCNADYSYGTTLDYWGQGTHVTVSS | low polyreactivity |
| QVQLVESGGGLVHAGGSLRLSCAASGSIYPSYGMGWYRQAPGKERELVARITSGGGTNYADSVKGRFTISRDNAKNTVYLQMNSLKPEDTAVYYCAAQSTTIEDGWYVEYNYWGQGTQVTVSS | high polyreactivity |
| QVQLVESGGGLVHAGGSLRLSCAASGSIYPYYAMGWYRQAPGKERELVAVISRGGVRTYYADSVKGRFTISRDNAKNTVYLQMNSLKTEDTAVYYCAAGYPYGVDYWGQGTQVTVSS | high polyreactivity |
| QVQLVESGGGLVHAGGSLRLSCAASGSTFARYAMGWYRPAPGKERELVAVIRSGGSTNYADSVKGRFTISRDNAKNTVYLQMNSLKPEDTAGAADQWTIHRWATYGYWGQGTQVTVSS | low polyreactivity |
| QVQLVESGGGLVHAGGSLRLSCAASGSTFDVYVMGWYRQAPGKEREMVAAISSGDDTNYADSVKGRFTISRDNAKNTVYLQMNSLKPEDTEVYYCNADYFDYSRPRYDYWGQGTQVTVSS | low polyreactivity |
| QVQLVESGGGLVHAGGSLRLSCAASGSTFGINAMGWYRQAPGKERELVAAITRGGSTKYADSVKGRFTISRDNAKKTVYLQMNSLKPEDTAVYYCNKRPWHRSSRPFYYWGQGTQVTVSS | high polyreactivity |
| QVQLVESGGGLVHAGGSLRLSCAASGSTFKGYAMGWYRQAPGKERELVASIRSSSGSTYYADSVKGRFTISRDNAKNTVYLQMNSLKPEDTAVYYCATALWVRYYGQGGYIRRYDYWGQGTHVTVSS | high polyreactivity |
| QVQLVESGGGLVHAGGSLRLSCAASGSTFLPNAMVWYRQSHGKERELVAAISYRGGGTFYADSVKGRFTISRDNAKNTVYLQMNSLKPEDTAVYYCAADWSWFDNFDYWGQGTQVTVSS | low polyreactivity |
| QVQLVESGGGLVHAGGSLRLSCAASGSTFYYNAMGWYRQAPGKERELVAAITKSGDDTYYADSEKGRFTISRDNATNTVYLQMNSLKPEDTAVSYCAAYLSWYDYWGQGTQVTVSS | low polyreactivity |
| QVQLVESGGGLVHAGGSLRLSCAASGSTFYYYAMGWYRQAPGKERELVAAIRGDSTYYADSVKGRFTISRDNAKYTVYLQMYSLKTEDTAFYYCAADWYDTGFWWTYPYDYWGQGTQVTVSS | low polyreactivity |
| QVQLVESGGGLVHAGGSLRLSCAASGSTVSYYAMGWYRQAPGKERELVAAISTRGSSTYYADSVKGRFTISRDNAKNTVYFQMNSLKPEDTAVYYCAVDQYKYDWFYDYYGYTYGYWGQGTQVTVSS | high polyreactivity |
| QVQLVESGGGLVHAGGSLRLSCAASGYTFRYYAKGWYRQAPGKERELVAAINSGDITNYADSVKGRFTITRDNAKTTVYLQMNSLKPEDTAVYFCARSTFSLYDYWGQGTQVTVSS | low polyreactivity |
| QVQLVESGGGLVHAGGSLRLSCAASGYTFTYYVMGWYRQAPGKEREFVAGIRNGGGRMYYADSVKGRFTISRDNAKNTVYFQMNSLKPEDTAVYYCNAGYGTYYSGVYWRGEMDYWGQGTQVTVSS | high polyreactivity |
| QVQLVESGGGLVHAGGSLRLSCAASRRNFTRNAMGWYRQAPGKERELVAAIRRGGRTNYADSVKGRFTISRDNAKNTVYLQMNSLKPEETAVYYCNKAGWLKWAPRQYYYWGQGTQVTVSS | high polyreactivity |
| QVQLVESGGGLVHAGGSLRLSCYATGIILDRYTMGWYRQAPATERELVAAISRSGGITYYADSVKGRFTISRDNAKNTVYLQMNSLKQEDTAVYYCAAKYFDHRQTAYEYWGQGTHVTVSS | high polyreactivity |
| QVQLVESGGGLVHAGGSLRLSFAASGRTFTLNAMGWYRQAPGKEREFVAAISNSGVRTYYADSVKGRFTISRDNAKNTVYLQMNSLTPEDTAVYYCDGTYQVGDSIDDYWGQGTQVTVSS | low polyreactivity |
| QVQLVESGGGLVHAGGSLRVSCAASGSISDSYAMGWYREAPGKERELVAAITSGDSTYYADSVKGRFTISLDNAKNTVYLQMNSVKPEDTAVYYSAKRVSRVRGYGFTDWSEYDYWGQGTQVTVSS | low polyreactivity |
| QVQLVESGGGLVHAGGSLSLSCAASGRTFTSNAMGWYRQAPGKERELVATINGGVSTYYADSVKGRFTISRDNAKNTVYLQMNSLKPEDTAVYYCARDAYDADPSLWYYTYDYWGQGTQVTVSS | low polyreactivity |
| QVQLVESGGGLVHAGGSLSLSCAASGSTLRAYTMGWYRQSPGKERELVATITRRGGTTYYADSVKGRFTISRDNAKNTVYLQMNSLKPEDTAVYYCAAKWYSTHRYDYWGQGTQVTVSS | high polyreactivity |
| QVQLVESGGGLVHARGSLRLSCAASGCTFVRNAMGWYRPAPGKERELGAAITSRGGSTYYADSVKGRFTISRDNAKNTVYLQMNSLKPEDTAVYYCAARFGVKRGQYDFWGQGTQVTVSS | high polyreactivity |
